# From patent publication US20230141962A1
# Target: SARS-CoV-2 spike protein S1 subunit (WIV4) (SARS-CoV-2 (isolate 2019-nCoV, WIV4)), P0DTC2
# Details: remark: other sources report otherwise
binder,measurement,value
scFv clone #26 (scFv) scFv: QAVLTQAPSASGTLGQQVTISCSGTTSNIGRNTVNWYQHLPGTAPKLLIFVSNQRPSGVPDRFSGSKSGTSASLVISGLQSEDEADYYCGAWDDSLDGMLFGGGTKLTVLGSRGGGGSGGGGSGGGGSLEMAQVQLVQSGAEVKKPGASVKVSCKASGYTFTSYGISWVRQAPGQGLEWMGWISAYNGNTNYAQKLQGRVTMTTDTSTSTAYMELRSLRSDDTAVYYCARGYYGDLDPWGQGTLVTVSSTSGQAGQ,IC50,1.33 nM
